The values below come from US20240148884A1.

Targets include dog GLP1R (dog); mouse GLP1R (mouse) (UniProt O35659); dog GIPR (dog).
What all share (assay): cell-based or functional assay
The target of experiment [1] is cynomolgous monkey GLP1R (cynomolgous monkey).
Experiment [2] addresses cynomolgous monkey GIPR (cynomolgous monkey).
A further experiment has as its target T1, human GIPR (human) (UniProt P48546).
T1 sequence (looked up): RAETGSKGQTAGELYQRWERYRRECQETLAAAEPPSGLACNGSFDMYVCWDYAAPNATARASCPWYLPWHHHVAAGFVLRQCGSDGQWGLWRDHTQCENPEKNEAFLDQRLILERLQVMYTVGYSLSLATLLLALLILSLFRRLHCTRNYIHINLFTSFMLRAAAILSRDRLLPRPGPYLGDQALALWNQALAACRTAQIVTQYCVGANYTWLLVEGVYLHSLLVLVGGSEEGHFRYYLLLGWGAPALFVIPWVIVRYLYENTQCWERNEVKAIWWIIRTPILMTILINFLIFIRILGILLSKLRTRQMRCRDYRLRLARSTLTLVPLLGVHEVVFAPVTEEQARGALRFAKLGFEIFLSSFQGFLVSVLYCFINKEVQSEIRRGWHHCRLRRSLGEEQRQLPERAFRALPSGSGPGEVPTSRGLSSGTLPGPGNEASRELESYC

For the next experiment, the target named is T2, mouse GIPR (mouse) (UniProt Q0P543).
T2 sequence (looked up): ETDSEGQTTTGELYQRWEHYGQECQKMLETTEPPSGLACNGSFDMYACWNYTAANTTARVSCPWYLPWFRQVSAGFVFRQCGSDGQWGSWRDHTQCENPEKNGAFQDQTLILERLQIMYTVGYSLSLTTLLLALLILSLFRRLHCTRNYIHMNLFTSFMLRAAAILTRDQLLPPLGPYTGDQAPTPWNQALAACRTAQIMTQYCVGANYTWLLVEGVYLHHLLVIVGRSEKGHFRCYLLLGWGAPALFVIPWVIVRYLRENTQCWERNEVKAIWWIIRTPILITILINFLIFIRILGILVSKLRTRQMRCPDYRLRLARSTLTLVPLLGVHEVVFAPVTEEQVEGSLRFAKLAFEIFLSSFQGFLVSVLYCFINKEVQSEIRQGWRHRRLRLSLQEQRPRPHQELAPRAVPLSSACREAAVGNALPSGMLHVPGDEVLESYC

Chain of mouse GLP1R (mouse) (O35659 22-463 limits assumed): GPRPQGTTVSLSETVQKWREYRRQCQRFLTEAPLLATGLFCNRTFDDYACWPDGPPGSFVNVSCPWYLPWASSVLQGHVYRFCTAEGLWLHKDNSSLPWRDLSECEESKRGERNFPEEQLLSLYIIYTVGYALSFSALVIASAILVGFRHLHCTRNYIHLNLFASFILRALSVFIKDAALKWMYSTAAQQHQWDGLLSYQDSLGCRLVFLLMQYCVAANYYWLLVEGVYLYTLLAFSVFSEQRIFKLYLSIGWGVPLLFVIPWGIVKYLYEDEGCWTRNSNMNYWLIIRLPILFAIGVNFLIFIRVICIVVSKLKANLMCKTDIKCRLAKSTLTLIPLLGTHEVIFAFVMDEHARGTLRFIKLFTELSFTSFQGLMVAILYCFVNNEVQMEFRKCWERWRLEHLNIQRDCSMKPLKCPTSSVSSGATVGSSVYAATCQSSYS
Chain of dog GLP1R (dog) (chain, as listed by the source): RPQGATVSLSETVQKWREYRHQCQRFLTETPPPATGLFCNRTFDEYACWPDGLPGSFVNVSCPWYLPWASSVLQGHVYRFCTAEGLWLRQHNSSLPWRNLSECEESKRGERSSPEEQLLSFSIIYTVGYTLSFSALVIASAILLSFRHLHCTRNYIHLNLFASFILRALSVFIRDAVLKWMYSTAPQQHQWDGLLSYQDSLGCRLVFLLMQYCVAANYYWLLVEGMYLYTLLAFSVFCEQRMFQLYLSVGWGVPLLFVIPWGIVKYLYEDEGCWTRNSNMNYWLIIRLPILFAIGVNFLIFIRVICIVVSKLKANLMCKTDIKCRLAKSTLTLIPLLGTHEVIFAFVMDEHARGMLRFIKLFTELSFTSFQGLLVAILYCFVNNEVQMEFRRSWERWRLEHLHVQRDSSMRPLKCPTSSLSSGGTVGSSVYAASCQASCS

In experiment [1], Semaglutide (peptide) came in with an In Vitro Potency GLP1R EC50 [nM], Cyno of 0.13 nM. Further, the In Vitro Potency GLP1R EC50 [nM], Dog with dog GLP1R (dog) was found to be 0.67 nM. Moreover, in the experiment with mouse GLP1R (mouse), the In Vitro Potency GLP1R EC50 [nM], Mouse amounted to 0.1 nM.

Tirzepatide (peptide) returned an In Vitro Potency GIPR EC50 [nM], Cyno in experiment [2] of 0.08 nM. Also, the In Vitro Potency GIPR EC50 [nM], Dog with dog GIPR (dog) was 0.1 nM. In addition, the In Vitro Potency GIPR EC50 [nM], No Serum with human GIPR (human) was determined as 0.006 nM. In the experiment with mouse GLP1R (mouse), this substance registered an In Vitro Potency GLP1R EC50 [nM], Mouse of 0.16 nM.

Regarding “wild-type human GIP (hGIP) (from UniProt P09681 52-93) (ligand)”, in experiment [2], the In Vitro Potency GIPR EC50 [nM], Cyno is 0.69 nM. Further, the In Vitro Potency GIPR EC50 [nM], Dog with dog GIPR (dog) is 0.7 nM. In the experiment with human GIPR (human), the In Vitro Potency GIPR EC50 [nM], 10% FBS was found to be 0.01 nM and the In Vitro Potency GIPR EC50 [nM], No Serum was found to be 0.05 nM. The same substance returned an In Vitro Potency GIPR EC50 [nM], Mouse with mouse GIPR (mouse) of 0.34 nM.
